From the DeepSol protein solubility set

assay: soluble on expression in E. coli; label from the status in PepcDB or PDB records

Sequence | soluble on expression in E. coli
MGSDKIHHHHHHMSDTLIELRNIGKRFGGVRALDGVSLAIRPGEIHCLAGENGSGKSTVIKVMSGIYTPEEGEILIDGRPVGRLDPIRAVQHGVQVIYQDFSLFGNLTVAENLALNTYVLEGRRRMDWRRARTMAVEVLARLGVDIDPDAEVGTLPTSGRQVVAIARAILAKARLIIMDEPTTALTRHEVDALFAIVRDLQAQGIAVLFVSHKMREMLEISERLTVFRNGRKVAEGPMSDFDEAAITHAMTGLSLTDDPYRPTLPPGPPLLEVRKLSVPGSVQDIDLSLRPGEIVGISGLIGSGRTELARALFGMEPAMTGTLRLEGREIHPRSVQEAIALGIAYVPEDRLTEGLFLPQSIERNLVVSILERLRRGPFLDTRAVREKTLGMFRDMQIAAPSPETAVGNLSGGNAQRVMLGRWLLTGARVLILNGPTVGVDVGSKATIHRIIRDLAQREGLGVLMISDDVPELVTNCNRIHVMHRGRFVADLDGSGMTEDRINDALKTLN | not soluble
MGSDKIHHHHHHMDPLSSSDPARLASEQRRLRLQVLGLNTVEAEATFDRIARLAASFTQSPLAMVNFINDERQMFRGMYVPSGSPDDKVSPESGGIAFDLSNLSREAPGDYGFCPHVVAQGSQLALDDVFDYPRFKGNPLVNDLGVRSYLGTPLRDNTGMILGTVCVADMKPRTWDRGLREGMQELTETLLSDFKLRDSLLAQQQELFAVFDGAPFPIMLTEGPDHLLRYANGKQGSAFGLVPQFSPGRHVLPGLEAIGVFGAMDDAFHTGQAATLARASIQTYDSHTLQDFNFLCTPVRTSPAAPISGVLTVAMNTTGQDFAGSEQRAFAANVQERFERLGAGGLPGGMPGQRAESAGYRG | not soluble
MEEALKENIMGALEQVVDPELGVDIVNLGLVYDVDMDEDGLTHITMTLTSMGCPLAPIIVDEVKKALADLPEVKDTEVHIVWNPPWTRDKMSRYAKIALGIQLEHHHHHH | not soluble
MRKPIEHTADIAYEISGNSYEELLEEARNILLEEEGIVLDTEEKEKMYPLEETEDAFFDTVNDWILEISKGWAPWRIKREGNELKVTFRKIRKKEGTEIKALTYHLLKFERDGDVLKTKVVFDT | not soluble
MGSDKIHHHHHHMDKLLYIAMSGAKQNMQALSINANNLANAKTTGFKADLAQARSMQAFGEGLPSRVFSMTERASQNFDSGSILHTGRSLDMAIEGEGFFAVQAEDGQEAYTRGGHFRLTETGALETNDGELVIGENGPITLPLPINNIQISRDGTIMVQPAGAPSSVQEEVGRIKLVNPDTRLVDKGNDGLFRAKNGGQLIADVNVNVLGGALESSNVNPINEMTDMIALQRQFEMQLKMMKTAEEIDSSASSLLRAF | not soluble
MRRFDCTVVAIHDDASLGCRLPGANKALRIQLNAVELPAAEPWRRRAREALEDMLLGKSATIREQGRDARFRILGAAWVTPADCPTCGHTLDAGLALLTIGLASWRDAPDSGQTAEARGQYRFAEEEARARKAGQWRP | soluble
MPSSGRGGAFFPDPCVFHGAYLPSGSSRWAKESTMFFIAKYKRNTEWLKMIFSNALHGVQEGSGFEWKAFVTLMPTELRVVSLSQELLRLWLVISYTVRDVRTYFFP | not soluble
MGSDKIHHHHHHMDLFSASFNPHQIAPLAERMRPRTLDDYIGQSEIIGKGKLLRRAIEADRVTSLILYGPPGTGKTSLAQVIANTTSSGFVRINAVAAGVKEIREIIQTATEQLHLYGKKTLVFCDEVHRFNKGQQDALLPAVENGTITFIGATTENPFFELNSALLSRSTLFRLQPLTAEDIRSGLAQALADKERGLGNYSVSIDPEAWEHWLNFANGDLRRALNALELAVLTTPPEQGVRRITLSVAEESIQQRAMRFDKNGDNHYDIVSAFIKSMRGSDPDAALYWLAVLLESGEDPRFIVRRIIVHASEDVGLADPMVMLQAHAAANALEWVGLPEARIPIAQAVLAIATAPKSNSTIMAIDRATGYVRSHPTGQVPAHLRDANYPGAKKMGHGKNYLYPHDYPGHWVEQGYLPQEVQGENFFTPSGTGQDRDNRGKPQVIPPSE | not soluble
MGSDKIHHHHHHMNILDGIKSLALKLGSKQDQTYYARGLSLTDDLMQIEALWRDNWIANKVCIKRSEDMVRNWRDIFSNDLKSEQLDEFTKLERRLKLRETLTKALQWSSLYGAVGLLVVTDTINITSPLQPTERLKRLIILPKWKISPTGQRDDDVFSPNFGRYSEYTITGGTQSVSVHHSRLLIINANDAPLSDNDIWGVSDLEKIIDVLKRFDSASANVGDLIFESKIDIFKIAGLSDKISAGLENDVAHVISAVQSIKSATNSLLLDAENEYDRKELSFGGLKDLLTEFRNAVAGAADMPVTILFGQSVSGLASGDEDIQNYHESIHRLQETRLRPVLEVLDTLLCNELFGGQPDDWWFEFLPLTVVKQEQQVNMLNTFATAANTLIQNGVVNEYQVANELRESGLFANISADDIEEMKNANELARNFEEPEGESTQVQASEDE | not soluble
MSSTIKAIAVLKGDSPVQGVITFTQESSGGPVTVSGEIKNMDANAQRGFHVHQFGDNSNGCTSAGPHFNPTGTNHGDRTAEVRHVGDLGNVKTDASGVAKVQISDSQLSLVGPHSIIGRTIVIHAGEDDLGKTDHPESLKTGNAGARSACGVIGIAAAAALEHHHHHH | soluble
DKSNKLQNLVAEQLVGCGFNEILNNSLTRAAYYDGLESYPSKNLVMLLNPLSADLNCMRQTLLFGGLESIAHNANRKNADLKFFEFGNCYHFDAEKKNPEKVLAPYSEDYHLGLWVTGKMVSNSWAHADENTSVYELKAYVENIFKRLGLDLHSLVVGNLSDDIYSTALTVNTKGGKRLATFGVVTKKMLKAFDVDNEVYYADLNWK | not soluble
MATYRQRGKKKLWDYRIFNEKSELVASGSGFKTKREAMNEAMRIEQQKLLVNSISSDITLYDLWFEWYSLIIKPSNLAETTKNKYFTRGSVIRKLFGNQKVNKIKHSAYQRKLNTYAEKYTKNHVRRLNSDIKKAIQFAKRDGVLLSDFTDGVVIAGRKFVKDADDKYLHSIFDYKKVISYLENNLDYSNSIVYYLLLVLFKTGLRVGEALALTWDDVNFEDLEIKTYRRFSGDKGTFSPPKTKTSIRTIPISQSLALILRDLKDDQQVMLKNLKIVNMNNQIFYDYRYGVSTNSAINKSLKNVLKILNINSKMTATGARHTYGSYLLAKGVDIWVVARLMGHKDITQLLETYGHVLTEVINKEYETVRSLVS | not soluble
MKSKKILIVGAGFSGAVIGRQLAEKGHQVHIIDQRDHIGGNSYDARDSETNVMVHVYGPHIFHTDNETVWNYINKHAEMMPYVNRVKATVNGQVFSLPINLHTINQFFSKTCSPDEARALIAEKGDSTIADPQTFEEQALRFIGKELYEAFFKGYTIKQWGMQPSELPASILKRLPVRFNYDDNYFNHKFQGMPKCGYTQMIKSILNHENIKVDLQREFIVDERTHYDHVFYSGPLDAFYGYQYGRLGYRTLDFKKFIYQGDYQGCAVMNYCSVDVPYTRITEHKYFSPWEQHDGSVCYKEYSRACEENDIPYYPIRQMGEMALLEKYLSLAENETNITFVGRLGTYRYLDMDVTIAEALKTAEVYLNSLTDNQPMPVFTVSVGHHHHHH | soluble
HNITRPIRSMSSTCREINKNKGNYRSYRFESVKRKDEIGQLAVTFESLLRNMDNYTKMEYTSKMSATLAHEIKNPIAGIRSGIQLLKGRAAKESDKMLCESMIKEVDRVTTLIMNLFTLSVKKESPKELISFEKVIGEIAMIYSKGAEGQGVVMETAVEEGLTGYLNENEFRQIAHNLISNSIKSVIPGIEGRIRISGRESGNKALIEFQDNGKGMSREELTRAMEPFYTKSINGIGIGLAIVKKLVEQNGGLMEMASACGEGTCVRLTFYRRVEDYEENISRG | not soluble
MKTPNAQEAEGQQTRAAAGRATGSANMTKKKVSQKKQRGRPSSQPRRNIVGCRISHGWKEGDEPITQWKGTVLDQVPINPSLYLVKYDGIDCVYGLELHRDERVLSLKILSDRVASSHISDANLANTIIGKAVEHMFEGEHGSKDEWRGMVLAQAPIMKAWFYITYEKDPVLYMYQLLDDYKEGDLRIMPESSESPPTEREPGGVVDGLIGKHVEYTKEDGSKRIGMVIHQVEAKPSVYFIKFDDDFHIYVYDLVKKS | soluble
MSLRIAIQGCSHGSLAQIYDVVNYYSSQTKNPIDLLLLCGDFQALRSKHDYASLAVPAKFKQLGSFHQYYSGERVAPVLTIVIGGNHEASNYMWELYHGGWLAPSIYYLGAAGSVYMNGLRIVGASGIYKGFDYRKGHFEKVPYNDKELRSIYHIREYDVEKLMHLTPSPSTIFLSHDWPTTIAHHGNKNALLKRKPFFRDENTLGSPPLLRLMNHFQPSYWFSAHLHVKFAALYEHQAPSHGPDVDGGAPLPLPAMSTAIAQTGNEGHHHHHH | not soluble
MISSKLKLQSLTSKDLSAILELDQACFGGLWTMEGYQRELDSPNSDLLGLFSPSSPIKLLGMGCFWSIVGEAHITILAVHPQYHHQGLGQALLYFLLRTASDRGLERATLEVRASNEAAISLYQKFGFQTAGRRRAYYQDNGEDALILWLPDLQYPQFQETLAHWKTIIQDGLQKYSWSIVNSR | soluble
MQSHTFTRSRGVPIYMNGSVSHQRLYDRLSEPSTSRQLPRSISLAPTGHHRTGSTRIDREQVDTSLPVTYIPRFHDESAVRRMNYRQIPGTDIRMSKIGFGAAAIGGMFGNVEDSIIKIVETAIKQGINYIDTGYWYSQSRSESILGKALSKIPRKAYYISTKVGRFELDYARTFDFRADKILESLTNSLKRLQLTYIDICYVQIHDADFAPNESIVLYETLQALEMAKSSGKIRHIGLTGYPLGKLVYSFRYVWNAPKLYFSVNLSITRNIAVINSGALCWGLLTEKGPPPWHPASDEIKEACLAATTYCSSKNISISKLALDYALNFPNVICCLVGMDSVQQVLDNLELSNFSRITDVEQRVRDRIMRRYLDRLENAGWEGVDVAQYWKKLKKLGLTALATHRHSSVESLASTLNGFSLYSSNSSSELRTPRRRRPF | not soluble
MGSDKIHHHHHHMVSIIDFYVLQKRPSNGGGFDIAIGNPPYISAPTQIASPELNEQRQRIVASKKYKSLNEKWDLYVPFMELGMQLLCPNGVFSMIVPYPLTNQKYGKKLRKMIVEEYRLLEIADLNGTKIFENATVSNCIPFIQNSQPEGELRITQIFEDKTIREVLSKSPKALKLDKKNYVWNLTEEERTGNRFANMNVLGDFCYISVGMVVNANEKDAQGAFKKEDLISDTYDAIHCRKYIEAKDIDKFQVKRVRYLEWNTERCPEKLRRPTFRELYDRPKLIMNCLGTINVTIDAEEHFLHNHSIYCAILWKDLKDVSNKSISSSVKKFSKHNREAMESLSEKVDLYYLLGILNSSMADQLLTDQRGGDYHIYPEHIRNLPIPVPQREIQNAIGEIAKQILLIRETNTDYSELEEQLNNLVEALYQ | not soluble
MWLYYLQVVMDMRVYVEGYGCVLNTADTEIIKNSLKKHGFEVVNNLEEADIAIINTCVVRLETENRMIYRINELKNLGKEVVVAGCLPKALKNKVKGFLHIYPREAHKAGEILKNYVEKHYRMPYIEEDINKTLYKKLDYLKPSLITPLPICEGCIGNCSYCIVKIARGGLISYPREKIVNKAKELINKGAKCLLITAQDTACYGFDIGDNLANLLNELTQIKGEFIMRVGMMHAKNAELILDELIEVYQNEKVGKFLHLPLQSGDDEILKRMKRGYTVDEFKDIVNEFRRKIKNLCFTTDIIVGFPGETEEQFQNTLEVLRELKPDYIHGAKYSQRKGTEAAKMKQIDTKIRKRRSEILDKLRRELSYLNNKKYIGKAMKVLVLDEGKGYTDNFKVVKFEGGEVGEFRKVKITDAKTFGLKGELILLEHHHHHH | soluble
MTIQQSVTHQLLIPITFEGKEHTTITLQRPKTKDLQAIDKKEGVEQTIAMIARLSGWPHEAISELDINDLSSIGEILESFIKRRDTSTGKPPQN | soluble
